Literature values, collected in article PMC4040926.
pKd: −log10 of the molar value.

Target: SNARE complex (Rattus norvegicus) (UniProt P32851)
Test: ITC

Chain of UniProt P32851 (P32851 whole entry, chain 1 of 3): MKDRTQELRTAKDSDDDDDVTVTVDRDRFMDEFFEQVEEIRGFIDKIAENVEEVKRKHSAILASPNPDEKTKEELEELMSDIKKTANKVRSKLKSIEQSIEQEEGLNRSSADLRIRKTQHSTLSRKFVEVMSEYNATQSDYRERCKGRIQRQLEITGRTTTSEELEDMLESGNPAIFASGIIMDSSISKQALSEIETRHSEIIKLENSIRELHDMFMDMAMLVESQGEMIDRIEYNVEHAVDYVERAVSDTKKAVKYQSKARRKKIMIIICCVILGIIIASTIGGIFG
Chain of UniProt P32851 (B2RAU4 whole entry, chain 2 of 3, further chain): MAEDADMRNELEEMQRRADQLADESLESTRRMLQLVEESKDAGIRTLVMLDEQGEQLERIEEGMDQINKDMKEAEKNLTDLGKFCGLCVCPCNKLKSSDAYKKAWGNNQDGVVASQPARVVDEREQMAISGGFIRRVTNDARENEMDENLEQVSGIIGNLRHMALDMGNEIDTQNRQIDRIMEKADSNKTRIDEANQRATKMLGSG
Chain of UniProt P32851 (P63044 2-116, chain 3 of 3, further chain): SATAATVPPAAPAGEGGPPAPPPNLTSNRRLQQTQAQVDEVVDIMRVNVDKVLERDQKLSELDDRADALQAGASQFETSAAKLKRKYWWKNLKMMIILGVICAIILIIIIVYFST

pKd: 7.60
Substance: Complexin-I 26-83 (from UniProt P63041)
